Six molecules from patent US10830762 (dated 2020) can be followed below.

Numbering of substitutions follows the chain as printed. In names and notes the source's numbering stands.

In experiment [1] the target is T1, DDB1 in DF15R cell extracts (UniProt Q16531 2-1140).
T1 construct: Co-immunoprecipitated with FLAG-tagged CRBN proteins from cell extracts
Kind of experiment: immunoprecipitation and Western blot from DF15R cell extracts (FIG. 24C). For orientation: A western blot detects proteins with antibodies after separation by electrophoresis.

Experiment [2] deals with T2, full-length human GSPT1 (human, UniProt P15170 1-499).
T2 construct: mature; limits unknown; also called hGSPT1
Kind of experiment: CRBN immunoprecipitation in the presence of vehicle or Compound C (FIG. 34A).

Experiment [3] concerns the target T3, human GSPT1 G575N (human, UniProt P15170-3 139-637, limits assumed).
T3 construct: also called G575N mutation in GSPT1
Nature of the experiment: Compound C-induced in vitro binding of GSPT1 to CRBN (FIG. 31C).

T2 sequence (P15170 other isoform, or with tags, fused parts or gaps limits assumed): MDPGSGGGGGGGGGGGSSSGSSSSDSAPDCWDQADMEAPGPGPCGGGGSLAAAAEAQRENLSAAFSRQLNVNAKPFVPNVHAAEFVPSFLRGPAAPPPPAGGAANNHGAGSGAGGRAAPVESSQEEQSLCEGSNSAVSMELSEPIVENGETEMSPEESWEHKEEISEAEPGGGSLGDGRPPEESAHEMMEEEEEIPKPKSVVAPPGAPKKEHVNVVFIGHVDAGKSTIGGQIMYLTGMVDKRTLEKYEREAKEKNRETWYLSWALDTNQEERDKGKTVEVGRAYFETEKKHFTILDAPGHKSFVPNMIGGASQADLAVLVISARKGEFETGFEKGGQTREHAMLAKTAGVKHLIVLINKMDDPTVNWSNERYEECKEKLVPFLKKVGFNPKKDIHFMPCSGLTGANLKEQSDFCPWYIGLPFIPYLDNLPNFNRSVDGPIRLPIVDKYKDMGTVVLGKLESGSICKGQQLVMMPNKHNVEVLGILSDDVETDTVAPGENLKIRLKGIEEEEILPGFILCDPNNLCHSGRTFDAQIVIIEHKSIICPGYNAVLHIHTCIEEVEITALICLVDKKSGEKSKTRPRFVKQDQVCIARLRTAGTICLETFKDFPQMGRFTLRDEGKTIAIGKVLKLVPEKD
T1 sequence (Q16531 2-1140 limits assumed): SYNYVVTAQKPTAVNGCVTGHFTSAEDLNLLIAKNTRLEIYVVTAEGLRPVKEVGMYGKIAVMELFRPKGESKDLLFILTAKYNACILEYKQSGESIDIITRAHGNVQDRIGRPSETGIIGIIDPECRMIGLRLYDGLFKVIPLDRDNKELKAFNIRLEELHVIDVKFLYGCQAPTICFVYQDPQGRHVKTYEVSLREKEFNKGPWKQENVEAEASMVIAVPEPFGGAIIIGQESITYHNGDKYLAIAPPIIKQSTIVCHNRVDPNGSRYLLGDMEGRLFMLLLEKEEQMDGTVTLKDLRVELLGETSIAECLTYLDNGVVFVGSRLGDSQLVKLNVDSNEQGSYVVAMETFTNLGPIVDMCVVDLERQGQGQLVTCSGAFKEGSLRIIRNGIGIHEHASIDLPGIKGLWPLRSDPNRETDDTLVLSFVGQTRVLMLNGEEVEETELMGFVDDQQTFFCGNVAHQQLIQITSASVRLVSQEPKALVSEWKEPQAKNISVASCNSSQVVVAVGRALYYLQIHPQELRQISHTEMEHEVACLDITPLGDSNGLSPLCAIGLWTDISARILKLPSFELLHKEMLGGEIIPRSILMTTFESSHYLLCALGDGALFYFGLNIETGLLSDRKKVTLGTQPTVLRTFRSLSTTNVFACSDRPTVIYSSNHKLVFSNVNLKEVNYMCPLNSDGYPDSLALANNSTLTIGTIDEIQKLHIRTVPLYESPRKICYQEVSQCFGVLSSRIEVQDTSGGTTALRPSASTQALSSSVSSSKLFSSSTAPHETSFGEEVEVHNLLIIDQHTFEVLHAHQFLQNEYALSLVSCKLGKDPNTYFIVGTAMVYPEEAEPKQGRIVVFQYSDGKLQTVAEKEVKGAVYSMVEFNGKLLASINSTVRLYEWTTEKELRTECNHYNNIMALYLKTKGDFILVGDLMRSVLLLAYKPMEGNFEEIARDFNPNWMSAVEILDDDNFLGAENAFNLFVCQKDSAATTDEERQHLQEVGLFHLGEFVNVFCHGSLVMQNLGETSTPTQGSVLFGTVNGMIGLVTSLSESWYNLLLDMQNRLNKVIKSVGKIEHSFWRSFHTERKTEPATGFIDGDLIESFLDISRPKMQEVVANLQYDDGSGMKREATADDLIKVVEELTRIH
T3 sequence (P15170 whole entry G437N): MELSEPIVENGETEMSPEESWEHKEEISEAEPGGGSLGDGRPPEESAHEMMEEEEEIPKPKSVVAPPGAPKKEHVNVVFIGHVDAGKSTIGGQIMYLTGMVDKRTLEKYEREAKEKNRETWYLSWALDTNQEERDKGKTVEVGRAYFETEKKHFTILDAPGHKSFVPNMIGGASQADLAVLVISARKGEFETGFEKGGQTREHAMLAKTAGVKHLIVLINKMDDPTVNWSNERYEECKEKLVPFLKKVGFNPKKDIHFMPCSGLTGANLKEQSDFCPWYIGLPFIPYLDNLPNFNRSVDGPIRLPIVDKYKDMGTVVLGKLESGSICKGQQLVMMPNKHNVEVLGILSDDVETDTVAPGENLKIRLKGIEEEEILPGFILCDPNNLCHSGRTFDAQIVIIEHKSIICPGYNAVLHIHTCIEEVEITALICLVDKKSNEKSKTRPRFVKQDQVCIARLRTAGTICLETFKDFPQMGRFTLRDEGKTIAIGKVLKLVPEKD

B1: full length CRBN W386A (CRBN^W386A), FLAG-tagged, re-expressed in DF15R cells (other, human, UniProt Q96SW2 1-442, looked up)
chain: MAGEGDQQDAAHNMGNHLPLLPAESEEEDEMEVEDQDSKEAKKPNIINFDTSLPTSHTYLGADMEEFHGRTLHDDDSCQVIPVLPQVMMILIPGQTLPLQLFHPQEVSMVRNLIQKDRTFAVLAYSNVQEREAQFGTTAEIYAYREEQDFGIEIVKVKAIGRQRFKVLELRTQSDGIQQAKVQILPECVLPSTMSAVQLESLNKCQIFPSKPVSREDQCSYKWWQKYQKRKFHCANLTSWPRWLYSLYDAETLMDRIKKQLREWDENLKDDSLPSNPIDFSYRVAACLPIDDVLRIQLLKIGSAIQRLRCELDIMNKCTSLCCKQCQETEITTKNEIFSLSLCGPMAAYVNPHGYVHETLTVYKACNLNLIGRPSTEHSWFPGYAATVAQCKICASHIGWKFTATKKDMSPQKFWGLTRSALLPTIPDTEDEISPDKVILCL
notes: mature; not shown: FLAG tag
As for B1, the binding result in experiment [1] is “binds”.

B2: human CRBN E377V (other, UniProt Q96SW2 1-442, looked up)
chain: B1 chain with E377V, A386W
For B2, the binding result in experiment [2] is given as “no binding”.

B3: human WT CRBN (other, UniProt Q96SW2 1-442, looked up)
chain: B1 chain with A386W
notes: also called cereblon; hCRBN
As for B3, in experiment [3], the binding result is reported as “no binding”.

B4: human CRBN H357A (other, UniProt Q96SW2 1-442, looked up)
chain: B1 chain with H357A, A386W
With B4, the binding result in experiment [2] is on record as “no binding”.

B5: full length CRBN W400A (CRBN^W400A), FLAG-tagged, re-expressed in DF15R cells (other, human, UniProt Q96SW2 1-442, looked up)
chain: B1 chain with A386W, W400A
notes: mature; not shown: FLAG tag
As for B5, the binding result in experiment [1] is given as “binds”.

B6: human CRBN E377A (other, UniProt Q96SW2 1-442, looked up)
chain: B1 chain with E377A, A386W
For the molecule B6, the binding result in experiment [2] is on record as “no binding”.
